Data on four substances can be found in PMC6048534.

The target in assay [1] is CofB (minor pilin of CFA/III without its N-terminal 28 residues; homotrimer) (enterotoxigenic Escherichia coli (ETEC)). Nature of the assay: ITC. For orientation: Isothermal titration calorimetry measures the heat released or taken up as one component is titrated into another.
For assay [2] the target is unchanged. Nature of the assay: AUC.

A word on the Kd: it is the concentration at which binding is half-saturated. High values mean weaker binding, low ones tighter binding. Substance “CofJ (4–16) peptide (synthetic 13-residue peptide comprising CofJ residues 4–16)” yielded a Kd in assay [1] of 4.8 µM. Broadly, the stoichiometry N is the number of molecules, sites or subunits per partner or assembly. Turning to “CofB (minor pilin of CFA/III without its N-terminal 28 residues; homotrimer) (domain or fragment)”, the stoichiometry N in assay [2] turned out to be 3. For “CofJ (intact recombinant secreted protein of the CFA/III operon) (natural protein)”, the Kd in assay [1] is 0.14 µM. This substance yielded a stoichiometry N (CofJ per three CofB molecules) in assay [2] of 1. “CofJ (1–24) peptide (synthesized peptide consisting of CofJ residues 1–24)” displayed a Kd in assay [1] of 8.8 µM.
